Data on one substance can be found in article PMC2897846.

In this assay the target is CD40 on human B cells (human (endogenous in B cells from PBMC)) (UniProt P25942).
Sequence of UniProt P25942 (P25942 21-277): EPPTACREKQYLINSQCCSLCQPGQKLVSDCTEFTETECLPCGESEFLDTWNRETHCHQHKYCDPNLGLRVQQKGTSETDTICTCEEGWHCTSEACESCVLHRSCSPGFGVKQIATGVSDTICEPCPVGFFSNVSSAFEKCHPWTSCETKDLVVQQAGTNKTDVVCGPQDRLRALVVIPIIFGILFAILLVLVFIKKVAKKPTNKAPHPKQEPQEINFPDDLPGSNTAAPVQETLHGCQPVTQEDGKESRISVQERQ

Regarding “CD40 ligand (CD40L, CD154) incorporated into HIV virions (from UniProt P29965 1-261)”, the intracellular AID protein (flow cytometry) in CD19+ B cells exposed to CD40L+ HIV NL4-3 for three days (% of CD19+ cells) is 2.11.
